# Assay results as given in the supplement of paper PMC10567573.
# B1: GLT8D2 (parent)
# chain: QEAKLLHWNGRHKPWDFPSVHNDL
# Variants of: B1
# Experiment: protein stability index of a GFP-peptide fusion (GPS, HEK-293T) (PSI 1-6); higher = more stable
# Conditions: c terminus: a fixed tail appended
# 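Note: lentivirally expressed fusions sorted by FACS into six bins by GFP to DsRed ratio, PSI derived from sequencing read proportions per bin multiplied by bin number.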
row,Variant,protein stability index
1,QNAKLLHWNGRHKPWDFPSVHNDL [E2N],2.48
2,QAAKLLHWNGRHKPWDFPSVHNDL [E2A],1.89
3,QFAKLLHWNGRHKPWDFPSVHNDL [E2F],1.58
4,QIAKLLHWNGRHKPWDFPSVHNDL [E2I],1.78
5,QVAKLLHWNGRHKPWDFPSVHNDL [E2V],1.89
6,QYAKLLHWNGRHKPWDFPSVHNDL [E2Y],2.04
7,QDAKLLHWNGRHKPWDFPSVHNDL [E2D],2.65
8,QKAKLLHWNGRHKPWDFPSVHNDL [E2K],2.18
9,QHAKLLHWNGRHKPWDFPSVHNDL [E2H],2.21
10,QSAKLLHWNGRHKPWDFPSVHNDL [E2S],2.04
11,QELKLLHWNGRHKPWDFPSVHNDL [A3L],2.59
12,QECKLLHWNGRHKPWDFPSVHNDL [A3C],2.23
13,QENKLLHWNGRHKPWDFPSVHNDL [A3N],2.84
14,QEQKLLHWNGRHKPWDFPSVHNDL [A3Q],2.58
15,QEEKLLHWNGRHKPWDFPSVHNDL [A3E],3.51
16,QETKLLHWNGRHKPWDFPSVHNDL [A3T],2.75
17,QEAKLLHWNGRHKPWDFPSVHHDL [N22H],2.47
18,QEAKLLHWNGRHKPWDFPSVHADL [N22A],2.9
19,QEAKLLHWNGRHKPWDFPSVHVDL [N22V],1.92
20,QEAKLLHWNGRHKPWDFPSVHQDL [N22Q],2.79
21,QEAKLLHWNGRHKPWDFPSVHFDL [N22F],2.08
22,QEAKLLHWNGRHKPWDFPSVHLDL [N22L],2.53
23,QEAKLLHWNGRHKPWDFPSVHTDL [N22T],2.5
24,QEAKLLHWNGRHKPWDFPSVHPDL [N22P],2.57

row,Variant,protein stability index
1,QEAKLLHWNGRHKPWDFPSVHKDL [N22K],2.7
2,QEAKLLHWNARHKPWDFPSVHNDL [G10A],2.75
3,QEAKLLHWNWRHKPWDFPSVHNDL [G10W],2.5
4,QEAKLLHWNCRHKPWDFPSVHNDL [G10C],1.49
5,QEAKLLHWNLRHKPWDFPSVHNDL [G10L],2.42
6,QEAKLLHWNERHKPWDFPSVHNDL [G10E],2.8
7,QEAKLLHWNHRHKPWDFPSVHNDL [G10H],2.48
8,QEAKLLHWNFRHKPWDFPSVHNDL [G10F],2.37
9,QEAKLLHWNGRHKPWKFPSVHNDL [D16K],2.26
10,QEAKLLHWNGRHKPWTFPSVHNDL [D16T],2.62
11,QEAKLLHWNGRHKPWGFPSVHNDL [D16G],2.39
12,QEAKLLHWNGRHKPWWFPSVHNDL [D16W],2.5
13,QEAKLLHWNGRHKPWLFPSVHNDL [D16L],2.32
14,QEAKLLHWNGRHKPWAFPSVHNDL [D16A],1.96
15,QEAKLLHWNGRPKPWDFPSVHNDL [H12P],2.68
16,QEAKLLHWNGRCKPWDFPSVHNDL [H12C],2.71
17,QEAKLLHWNGRAKPWDFPSVHNDL [H12A],2.36
18,QEAKLLHWNGRTKPWDFPSVHNDL [H12T],2.79
19,QEAKLLHWNGRKKPWDFPSVHNDL [H12K],2.73
20,QEAKLLHWNGRVKPWDFPSVHNDL [H12V],2.61
21,QEAKLLHWNGRGKPWDFPSVHNDL [H12G],2.59
22,QEAKLLHWNGRWKPWDFPSVHNDL [H12W],2.54
23,QEAKLLHWNGRIKPWDFPSVHNDL [H12I],2.56
24,QEAKLLHWNGRYKPWDFPSVHNDL [H12Y],2.28

row,Variant,protein stability index
1,QEAKLLHWNGRDKPWDFPSVHNDL [H12D],3.26
2,QEAKLLHWNGRMKPWDFPSVHNDL [H12M],2.6
3,QEAKLLHWNGRNKPWDFPSVHNDL [H12N],2.65
4,QEAKLLHWNGRHKPWDCPSVHNDL [F17C],3.14
5,QEAKLLHWNGRHKPWDAPSVHNDL [F17A],3.45
6,QEAKLLHWNGRHKPWDHPSVHNDL [F17H],3.24
7,QEAKLLHWNGRHKPWDWPSVHNDL [F17W],2.58
8,QEAKLLHWNGRHKPWDRPSVHNDL [F17R],3.04
9,QEAKLLHWNGRHKPWDNPSVHNDL [F17N],2.85
10,QEAKLLHWNGRHKPWDMPSVHNDL [F17M],3.22
11,QEAKLLHWNGRHKPFDFPSVHNDL [W15F],2.88
12,QEAKLLHWNGRHKPRDFPSVHNDL [W15R],3.55
13,QEAKLLHWNGRHKPGDFPSVHNDL [W15G],3.76
14,QEAKLLHWNGRHKPNDFPSVHNDL [W15N],3.43
15,QEAKLLHWNGRHKPEDFPSVHNDL [W15E],4.14
16,QEAKLLHWNGRHKPWDFPSVWNDL [H21W],2.18
17,QEAKLLHWNGRHKPWDFPSVANDL [H21A],2.9
18,QEAKLLHWNGRHKPWDFPSVYNDL [H21Y],2.44
19,QEAKLLHWNGRHKPWDFPSVSNDL [H21S],3.21
20,QEAKLLHWNGRHKPWDFPSVDNDL [H21D],3.39
21,QEAKLLHWNGRHKPWDFPSVLNDL [H21L],2.39
22,QEAKLLHWNGRHKPWDFPSVTNDL [H21T],3
23,QEAKLLHWNGRHKPWDFPSVINDL [H21I],2.77
24,QEAKLLHWNGRHKPWDFPSVNNDL [H21N],2.96

row,Variant,protein stability index
1,SEAKLLHWNGRHKPWDFPSVHNDL [Q1S],2.51
2,WEAKLLHWNGRHKPWDFPSVHNDL [Q1W],2.21
3,FEAKLLHWNGRHKPWDFPSVHNDL [Q1F],1.65
4,TEAKLLHWNGRHKPWDFPSVHNDL [Q1T],2.49
5,PEAKLLHWNGRHKPWDFPSVHNDL [Q1P],2.85
6,CEAKLLHWNGRHKPWDFPSVHNDL [Q1C],1.75
7,NEAKLLHWNGRHKPWDFPSVHNDL [Q1N],2.84
8,AEAKLLHWNGRHKPWDFPSVHNDL [Q1A],2.68
9,QEAKLLHWNGRHKPWDFPSTHNDL [V20T],2.52
10,QEAKLLHWNGRHKPWDFPSSHNDL [V20S],3
11,QEAKLLHWNGRHKPWDFPSYHNDL [V20Y],2.06
12,QEAKLLHWNGRHKPWDFPSNHNDL [V20N],3.23
13,QEAKLLHWNGRHKPWDFPSRHNDL [V20R],2.94
14,QEAKLLHWNGRHKPWDFPSMHNDL [V20M],2.43
15,QEAKLLHWNGRHKPWDFPSKHNDL [V20K],2.56
16,QEAKLLHWNGRHKPWDFPSWHNDL [V20W],2.38
17,QEAKLLHWNGRHKPWDFPAVHNDL [S19A],3.21
18,QEAKLLHWNGRHKPWDFPRVHNDL [S19R],2.38
19,QEAKLLHWNGRHKPWDFPPVHNDL [S19P],2.7
20,QEAKLLHWNGRHKPWDFPTVHNDL [S19T],2.33
21,QEAKLLHWNGRHKPWDFPMVHNDL [S19M],2.79
22,QEAKLLHWNGRHKPWDFPQVHNDL [S19Q],2.95
